Changes are numbered by the printed parent chain.
B1: TIGIT-SC22 (Fc fusion)
VHH: EVQLVESGGGLVQPGGSLRLSCAASGFTLENNMMGWFRQAPGKEREMVAAISWSGGSALYADSVKGRFTISADNSKNTAYLQMNSLKPEDTAVYYCARGDGYSYGNFDYWGQGTLVTVSS
notes: VHH-Fc
B2: TIGIT-SC10 (Fc fusion)
VHH: EVQLVESGGGLVQPGGSLRLSCAASGNTFSGGFMGWFRQAPGKEREWVASVLRGGYTWYADSVKGRFTISADNSKNTAYLQMNSLKPEDTAVYYCASDPWGTRYFDHWGQGTLVTVSS
notes: VHH-Fc
B3: TIGIT-SC21 (Fc fusion)
VHH: B2 VHH with S97R, D98G, P99G, W100A, T102S, R103D, Y104W, D106G, H107P
notes: VHH-Fc
B4: TIGIT-SC175 (Fc fusion)
VHH: EVQLVESGGGLVQPGGSLRLSCAASGNTFSGGFMGWFRQAPGKEREWVASVLRGGYTWYADSVKGRFTISADNSKNTAYLQMNSLKPEDTAVYYCTTDALRFLEWPWWGQGTLVTVSS
notes: VHH-Fc
B5: TIGIT-SC61 (Fc fusion)
VHH: B2 VHH with A96T, S97R, D98G, P99D, W100T, G101A, T102M, R103A, Y104T, H107Y
notes: VHH-Fc
B6: TIGIT-SC9 (Fc fusion)
VHH: EVQLVESGGGLVQPGGSLRLSCAASGNTFSGGFMGWFRQAPGKEREWVASVLRGGYTWYADSVKGRFTISADNSKNTAYLQMNSLKPEDTAVYYCVNGYSYGRDYWGQGTLVTVSS
notes: VHH-Fc
B7: TIGIT-SC20 (Fc fusion)
VHH: EVQLVESGGGLVQPGGSLRLSCAASGNTFSGGFMGWFRQAPGKEREWVASVLRGGYTWYADSVKGRFTISADNSKNTAYLQMNSLKPEDTAVYYCATPRGYWGQGTLVTVSS
notes: VHH-Fc
B8: TIGIT-SC15 (Fc fusion)
VHH: EVQLVESGGGLVQPGGSLRLSCAASGSILSFNHIGWFRQAPGKEREGVAWIARYDGSTLYADSVKGRFTISADNSKNTAYLQMNSLKPEDTAVYYCARARGGYVDYWGQGTLVTVSS
notes: VHH-Fc
B9: TIGIT-SC27 (Fc fusion)
VHH: EVQLVESGGGLVQPGGSLRLSCAASGLTFSNYVMGWFRQAPGKEREVVAGILSDGRELYADSVKGRFTISADNSKNTAYLQMNSLKPEDTAVYYCARDVFGEGHWGQGTLVTVSS
notes: VHH-Fc
B10: TIGIT-SC12 (Fc fusion)
VHH: EVQLVESGGGLVQPGGSLRLSCAASGRTFSAYGMGWFRQAPGKEREFVAAITPSSRTTYYADSVKGRFTISADNSKNTAYLQMNSLKPEDTAVYYCAKDNWGEWLMPWWGQGTLVTVSS
notes: VHH-Fc
B11: TIGIT-SC8 (Fc fusion)
VHH: EVQLVESGGGLVQPGGSLRLSCAASGFAFSSYAMGWFRQAPGKEREFVARITWNGGSAYYADSVKGRFTISADNSKNTAYLQMNSLKPEDTAVYYCAAGATGWFDPWGQGTLVTVSS
notes: VHH-Fc
B12: TIGIT-SC173 (Fc fusion)
VHH: EVQLVESGGGLVQPGGSLRLSCAASGFTFSPSWMGWFRQAPGKEREWVASVLRGGYTWYADSVKGRFTISADNSKNTAYLQMNSLKPEDTAVYYCATERRLGVWGQGTLVTVSS
notes: VHH-Fc
B13: TIGIT-SC42 (Fc fusion)
VHH: EVQLVESGGGLVQPGGSLRLSCAASGNTFSGGFMGWFRQAPGKEREWVATVLRGGYTWYADSVKGRFTISADNSKNTAYLQMNSLKPEDTAVYYCASGGFLASWGQGTLVTVSS
notes: VHH-Fc
B14: TIGIT-SC203 (Fc fusion)
VHH: B12 VHH with T97R, E98D, R100G, L101G, G102S, V103D
notes: VHH-Fc
B15: TIGIT-SC191 (Fc fusion)
VHH: B12 VHH with T28V, P31S, S32D, T97R, E98G, R99D, R100S, L101M, G102D
notes: VHH-Fc
B16: TIGIT-SC201 (Fc fusion)
VHH: B12 VHH with A96T, T97R, E98D, R99G, R100G, L101F, G102D, V103P
notes: VHH-Fc
B17: TIGIT-SC25 (Fc fusion)
VHH: B13 VHH with T50S, A96T, S97T, G98V, F100Y, L101G, A102D, S103Y
notes: VHH-Fc
B18: TIGIT-SC195 (Fc fusion)
VHH: B12 VHH with T28A, P31S, S32D, T97R, E98G, R99E, R100G, L101F, G102D, V103Y
B19: TIGIT-SC171 (Fc fusion)
VHH: B12 VHH with S30D, P31R
notes: VHH-Fc
B20: TIGIT-SC198 (Fc fusion)
VHH: B12 VHH with W47Y, T97S, R99G, R100D, L101P, G102D, V103Y
notes: VHH-Fc
B21: TIGIT-SC13 (Fc fusion)
VHH: EVQLVESGGGLVQPGGSLRLSCAASGRTFSFMGWFRQAPGKEREWVASVLRGGYTWYADSVKGRFTISADNSKNTAYLQMNSLKPEDTAVYYCATESMDYWGQGTLVTVSS
notes: VHH-Fc
B22: TIGIT-SC6 (Fc fusion)
VHH: EVQLVESGGGLVQPGGSLRLSCAASGNTFSGGFMGWFRQAPGKEREWVASVLRGGYTWYADSVKGRFTISADNSKNTAYLQMNSLKPEDTAVYYCAISPVAWHAKFDSWGQGTLVTVSS
notes: VHH-Fc
B23: TIGIT-SC165 (Fc fusion)
VHH: EVQLVESGGGLVQPGGSLRLSCAASGNTFSGGFMGWFRQAPGKEREWVASVLRGGYTWYADSVKGRFTISADNSKNTAYLQMNSLKPEDTAVYYCTTEGSGWRNWGQGTLVTVSS
notes: VHH-Fc
B24: TIGIT-SC17 (Fc fusion)
VHH: EVQLVESGGGLVQPGGSLRLSCAASGFDFSVSWMGWFRQAPGKEREWVASVLRGGYTWYADSVKGRFTISADNSKNTAYLQMNSLKPEDTAVYYCAREGSWFDYWGQGTLVTVSS
notes: VHH-Fc
B25: TIGIT-SC189 (Fc fusion)
VHH: B23 VHH with T96V, E98D, G99V, S100G, G101A, W102P, R103D, N104Y
notes: VHH-Fc
B26: TIGIT-SC37 (Fc fusion)
VHH: B23 VHH with T96V, T97F, E98G, S100V, G101W, W102Q, R103D, N104V
notes: VHH-Fc
B27: TIGIT-SC164 (Fc fusion)
VHH: B23 VHH with N27F, S30D, G31R, G32S, F33W, W47F
notes: VHH-Fc
B28: TIGIT-SC29 (Fc fusion)
VHH: EVQLVESGGGLVQPGGSLRLSCAASGFTLENNMMGWFRQAPGKERELVAAIDWSGGSTIYADSVKGRFTISADNSKNTAYLQMNSLKPEDTAVYYCARGHDYGDYIAYWGQGTLVTVSS
notes: VHH-Fc
B29: TIGIT-SC28 (Fc fusion)
VHH: EVQLVESGGGLVQPGGSLRLSCAASGRTFSTDAMGWFRQAPGKEREFVATINWKDGFTYYADSVKGRFTISADNSKNTAYLQMNSLKPEDTAVYYCAGVGHDYGDYLFDYWGQGTLVTVSS
notes: VHH-Fc
B30: TIGIT-SC7 (Fc fusion)
VHH: EVQLVESGGGLVQPGGSLRLSCAASGRSFSMYVMGWFRQAPGKEREGVSFISGSDGSTLYADSVKGRFTISADNSKNTAYLQMNSLKPEDTAVYYCARGSIAARPVFFDYWGQGTLVTVSS
notes: VHH-Fc
B31: TIGIT-SC16 (Fc fusion)
VHH: EVQLVESGGGLVQPGGSLRLSCAASGTTFSSAAMGWFRQAPGKEREWVASVLRGGYTWYADSVKGRFTISADNSKNTAYLQMNSLKPEDTAVYYCARDPVELGDYWGQGTLVTVSS
notes: VHH-Fc
B32: TIGIT-SC18 (Fc fusion)
VHH: EVQLVESGGGLVQPGGSLRLSCAASGFSLDYYAMGWFRQAPGKEREVVAIIDTNGDNTLYADSVKGRFTISADNSKNTAYLQMNSLKPEDTAVYYCARGRGYGDYVGAYWGQGTLVTVSS
notes: VHH-Fc
B33: TIGIT-SC5 (Fc fusion)
VHH: EVQLVESGGGLVQPGGSLRLSCAASGFAFGDSWMGWFRQAPGKEREWVASVLRGGYTWYADSVKGRFTISADNSKNTAYLQMNSLKPEDTAVYYCARESEGWFDPWGQGTLVTVSS
notes: VHH-Fc
B34: TIGIT-SC23 (Fc fusion)
VHH: B33 VHH with A28T, F29L, G30S, D31S, S32N, S99R, E100L
notes: VHH-Fc
B35: TIGIT-SC183 (Fc fusion)
VHH: B33 VHH with R97K, E98D, S99R, E100S, G101Y, W102S, P105Y
notes: VHH-Fc
B36: TIGIT-SC30 (Fc fusion)
VHH: EVQLVESGGGLVQPGGSLRLSCAASGRSFSSDWIGWFRQAPGKERELVAAIDWSGGSALYADSVKGRFTISADNSKNTAYLQMNSLKPEDTAVYYCARVNWNNVGWFDPWGQGTLVTVSS
notes: VHH-Fc
B37: TIGIT-SC19 (Fc fusion)
VHH: EVQLVESGGGLVQPGGSLRLSCAASGRTYDAMGWFRQAPGKEREWVASVLRGGYTWYADSVKGRFTISADNSKNTAYLQMNSLKPEDTAVYYCARDVDYRFDSWGQGTLVTVSS
notes: VHH-Fc

The binders below were run against T1, human TIGIT-Fc (human, UniProt Q495A1 22-141, limits assumed) (assay: CD155 competition ELISA, single point; note: test concentration or dose not given here).
T1 construct: not shown: Fc; not described
T1 sequence (looked up): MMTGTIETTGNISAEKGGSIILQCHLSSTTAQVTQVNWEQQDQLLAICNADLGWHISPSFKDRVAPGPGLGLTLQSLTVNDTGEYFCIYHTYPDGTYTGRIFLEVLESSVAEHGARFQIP
Method: TIGIT/CD155 inhibition of VHH-Fcs were assessed using an ELISA assay (Table 10B). Briefly, human TIGIT-Fc was coated on a plate & then incubated with VHH-Fcs and human CD155-biotin. Bound CD155-biotin was detected using a streptavidin-HRP conjugate visualized with TMB. Strong inhibitors from the single point screen were titrated to determine EC50 (Table 10C).

Row | Binder | OD (450 nm)
1 | B1 | 0.552 OD
2 | B2 | 0.756 OD
3 | B3 | 0.607 OD
4 | B4 | 0.59 OD
5 | B5 | 0.343 OD
6 | B6 | 0.756 OD
7 | B7 | 0.726 OD
8 | B8 | 0.576 OD
9 | B9 | 0.505 OD
10 | B10 | 0.622 OD
11 | B11 | 0.817 OD
12 | B12 | 0.578 OD
13 | B13 | 0.341 OD
14 | B14 | 0.521 OD
15 | B15 | 0.49 OD
16 | B16 | 0.509 OD
17 | B17 | 0.469 OD
18 | B18 | 0.426 OD
19 | B19 | 0.571 OD

Row | Binder | OD (450 nm)
20 | B20 | 0.514 OD
21 | B21 | 0.666 OD
22 | B22 | 0.558 OD
23 | B23 | 0.324 OD
24 | B24 | 0.553 OD
25 | B25 | 0.486 OD
26 | B26 | 0.341 OD
27 | B27 | 0.363 OD
28 | B28 | 0.399 OD
29 | B29 | 0.539 OD
30 | B30 | 0.735 OD
31 | B31 | 0.471 OD
32 | B32 | 0.716 OD
33 | B33 | 0.564 OD
34 | B34 | 0.424 OD
35 | B35 | 0.5 OD
36 | B36 | 0.495 OD
37 | B37 | 0.746 OD

Reference: patent publication US20260184782A1 (TWIST BIOSCIENCE, published 2026)
